{"source": "the RNAGym collection of RNA variant scans (doi:10.7554/elife.80360)", "parents": {"B1": {"name": "HDV Ribozyme (parent)", "chain": "GGCCGGCAUGGUCCCAGCCUCCUCGCUGGCGCCGGCUGGGCAACAUUCCGAGGGGACCGUCCCCUCGGUAAUGGCGAAUGGGACCCA"}}, "data": [{"variants_of": "B1", "test": "self-cleavage, relative activity (ratio to wild type); higher = more cleavage; co-transcriptional", "values": [{"variant": "A16C C66A", "self-cleavage": 0.718}, {"variant": "A16C C66U", "self-cleavage": 0.982}, {"variant": "A16C C48G", "self-cleavage": 0.437}, {"variant": "A16C C85G", "self-cleavage": 0.95}, {"variant": "A16C C85A", "self-cleavage": 0.875}, {"variant": "A16C C85U", "self-cleavage": 0.795}, {"variant": "A16C C64U", "self-cleavage": 1.02}, {"variant": "C15U C19A", "self-cleavage": 0.128}, {"variant": "C15U U65G", "self-cleavage": 0.914}, {"variant": "C15U U65C", "self-cleavage": 0.674}, {"variant": "C15U G38A", "self-cleavage": 0.188}, {"variant": "C15U G38U", "self-cleavage": 0.259}, {"variant": "C15U G38C", "self-cleavage": 0.17}, {"variant": "C15U C41U", "self-cleavage": 1.05}, {"variant": "C15U C41A", "self-cleavage": 0.962}, {"variant": "A16C A42G", "self-cleavage": 0.229}, {"variant": "A16C C32A", "self-cleavage": 0.0554}, {"variant": "C15U U23C", "self-cleavage": 1.11}, {"variant": "C15U U23G", "self-cleavage": 0.415}, {"variant": "C15U U23A", "self-cleavage": 0.831}, {"variant": "C15U G53U", "self-cleavage": 0.767}, {"variant": "C15U G50C", "self-cleavage": 0.831}, {"variant": "C15U G50U", "self-cleavage": 0.991}, {"variant": "C15U C58A", "self-cleavage": 0.997}, {"variant": "C15U C24G", "self-cleavage": 0}, {"variant": "C15U C24A", "self-cleavage": 0.482}, {"variant": "A16C A83C", "self-cleavage": 0.227}, {"variant": "A16C A83U", "self-cleavage": 0.633}, {"variant": "A16C C33A", "self-cleavage": 0.208}, {"variant": "A16C C33G", "self-cleavage": 0.227}, {"variant": "A16C C33U", "self-cleavage": 0.688}, {"variant": "A16C A51C", "self-cleavage": 0.612}, {"variant": "A16C A51G", "self-cleavage": 0.475}, {"variant": "A16C A77U", "self-cleavage": 0.199}, {"variant": "A16C A77C", "self-cleavage": 0.266}, {"variant": "A16C A71C", "self-cleavage": 0.492}, {"variant": "C15U C48G", "self-cleavage": 1.13}, {"variant": "C15U C48A", "self-cleavage": 1.17}, {"variant": "C15U C48U", "self-cleavage": 0.852}, {"variant": "A16C C44U", "self-cleavage": 0.35}, {"variant": "A16C C44A", "self-cleavage": 0.289}, {"variant": "A16C C44G", "self-cleavage": 0.317}, {"variant": "C15U U79G", "self-cleavage": 0.703}, {"variant": "A16C C19A", "self-cleavage": 0.277}, {"variant": "A16C C19G", "self-cleavage": 0.0594}, {"variant": "C15U C36G", "self-cleavage": 0.128}, {"variant": "C15U C84A", "self-cleavage": 0.81}, {"variant": "C15U A71C", "self-cleavage": 0.467}, {"variant": "C15U A71G", "self-cleavage": 1.14}, {"variant": "A16C A56G", "self-cleavage": 0.776}, {"variant": "A16C A56U", "self-cleavage": 0.997}, {"variant": "A16C A56C", "self-cleavage": 0.639}, {"variant": "C15U A56U", "self-cleavage": 0.91}, {"variant": "C15U A56C", "self-cleavage": 1.02}, {"variant": "C15U A78U", "self-cleavage": 0.185}, {"variant": "C15U C22A", "self-cleavage": 0.113}, {"variant": "C15U C22U", "self-cleavage": 0.35}, {"variant": "C15U A87G", "self-cleavage": 1.05}, {"variant": "C15U A87U", "self-cleavage": 0.993}, {"variant": "A16C C61G", "self-cleavage": 0.7}, {"variant": "A16C C61A", "self-cleavage": 0.332}, {"variant": "C15U G17C", "self-cleavage": 0.0978}, {"variant": "C15U G17A", "self-cleavage": 0.604}, {"variant": "C15U G35U", "self-cleavage": 0.252}, {"variant": "A16C G17C", "self-cleavage": 0.266}, {"variant": "A16C G17U", "self-cleavage": 0.332}, {"variant": "C15U U72C", "self-cleavage": 0.598}, {"variant": "C15U G29C", "self-cleavage": 0.0449}, {"variant": "C15U G25C", "self-cleavage": 0.0723}, {"variant": "C15U G25U", "self-cleavage": 0.0875}, {"variant": "C15U C44G", "self-cleavage": 0.214}, {"variant": "C15U C44A", "self-cleavage": 0.684}, {"variant": "C15U U37C", "self-cleavage": 0.923}, {"variant": "C15U U37A", "self-cleavage": 0.196}, {"variant": "C15U G82U", "self-cleavage": 0.231}, {"variant": "C15U G82C", "self-cleavage": 0.166}, {"variant": "C15U C30A", "self-cleavage": 0.567}, {"variant": "C15U C30U", "self-cleavage": 0.554}, {"variant": "C15U U46A", "self-cleavage": 0.692}, {"variant": "C15U A51G", "self-cleavage": 1.07}, {"variant": "C15U C49A", "self-cleavage": 0.623}, {"variant": "C15U A70C", "self-cleavage": 0.776}, {"variant": "C15U A70G", "self-cleavage": 1.07}, {"variant": "C15U U60A", "self-cleavage": 1.15}, {"variant": "C15U U60C", "self-cleavage": 0.969}, {"variant": "C15U U60G", "self-cleavage": 0.554}, {"variant": "C15U C26G", "self-cleavage": 0.867}, {"variant": "C15U G31A", "self-cleavage": 0.302}, {"variant": "A16C C62A", "self-cleavage": 0.917}, {"variant": "A16C C62U", "self-cleavage": 0.804}, {"variant": "A16C", "self-cleavage": 0.838}, {"variant": "A16C C58U", "self-cleavage": 1.05}, {"variant": "C15U G80A", "self-cleavage": 0.992}, {"variant": "C15U G80U", "self-cleavage": 0.526}, {"variant": "C15U G74A", "self-cleavage": 0.383}, {"variant": "C15U G74C", "self-cleavage": 0.185}, {"variant": "C15U G74U", "self-cleavage": 0.485}, {"variant": "A16C C86G", "self-cleavage": 0.653}, {"variant": "A16C C86U", "self-cleavage": 0.739}, {"variant": "C15U C64U", "self-cleavage": 0.902}, {"variant": "C15U U69A", "self-cleavage": 1.15}, {"variant": "C15U C63G", "self-cleavage": 0.776}, {"variant": "C15U C63A", "self-cleavage": 1.03}, {"variant": "A16C A70U", "self-cleavage": 0.415}, {"variant": "A16C A87C", "self-cleavage": 0.671}, {"variant": "A16C A87U", "self-cleavage": 0.615}, {"variant": "C15U G73U", "self-cleavage": 0.269}, {"variant": "A16C C36U", "self-cleavage": 0.578}, {"variant": "A16C C36G", "self-cleavage": 0}, {"variant": "A16C C36A", "self-cleavage": 0.135}, {"variant": "A16C C18A", "self-cleavage": 0.0665}, {"variant": "C15U A77G", "self-cleavage": 1.14}, {"variant": "C15U C32U", "self-cleavage": 0.73}, {"variant": "C15U C32A", "self-cleavage": 0.214}, {"variant": "C15U G59A", "self-cleavage": 0.851}, {"variant": "C15U G59C", "self-cleavage": 1.13}, {"variant": "A16C A43U", "self-cleavage": 0.0831}, {"variant": "C15U G55U", "self-cleavage": 0.729}, {"variant": "C15U C62U", "self-cleavage": 0.764}, {"variant": "C15U C62A", "self-cleavage": 1.08}, {"variant": "C15U C21A", "self-cleavage": 0}, {"variant": "C15U C21U", "self-cleavage": 0.17}, {"variant": "A16C C24U", "self-cleavage": 0.287}, {"variant": "A16C C24A", "self-cleavage": 0.277}, {"variant": "A16C C24G", "self-cleavage": 0.0692}, {"variant": "A16C A45U", "self-cleavage": 0.332}, {"variant": "A16C A45C", "self-cleavage": 0.35}, {"variant": "A16C A45G", "self-cleavage": 1.05}, {"variant": "C15U C75G", "self-cleavage": 0.0665}, {"variant": "C15U U20G", "self-cleavage": 0.166}, {"variant": "C15U U20A", "self-cleavage": 0.0692}, {"variant": "C15U U20C", "self-cleavage": 0}, {"variant": "C15U G40U", "self-cleavage": 0.791}, {"variant": "C15U G40A", "self-cleavage": 0.972}, {"variant": "C15U G40C", "self-cleavage": 0.249}, {"variant": "C15U G52A", "self-cleavage": 0.863}, {"variant": "C15U C85G", "self-cleavage": 0.831}, {"variant": "C15U C57A", "self-cleavage": 1.03}, {"variant": "C15U C57U", "self-cleavage": 0.864}, {"variant": "C15U G28U", "self-cleavage": 0.227}, {"variant": "C15U G28C", "self-cleavage": 0.0405}, {"variant": "C15U U47A", "self-cleavage": 1.23}, {"variant": "A16C C41G", "self-cleavage": 0.104}, {"variant": "A16C C41U", "self-cleavage": 0.806}, {"variant": "A16C C41A", "self-cleavage": 0.388}, {"variant": "C15U C86A", "self-cleavage": 1.1}, {"variant": "C15U C86G", "self-cleavage": 0.91}, {"variant": "C15U C86U", "self-cleavage": 0.895}, {"variant": "C15U C18G", "self-cleavage": 0.0594}, {"variant": "C15U G68C", "self-cleavage": 0.597}, {"variant": "C15U G81C", "self-cleavage": 0.317}, {"variant": "C15U G76C", "self-cleavage": 1.03}, {"variant": "C15U G76A", "self-cleavage": 0.997}, {"variant": "A16C G28C", "self-cleavage": 0.119}, {"variant": "A16C G28A", "self-cleavage": 0.0449}, {"variant": "C15U U27A", "self-cleavage": 0.63}, {"variant": "C15U U27G", "self-cleavage": 0.511}, {"variant": "A16C G25A", "self-cleavage": 0.0405}, {"variant": "A16C G25U", "self-cleavage": 0}, {"variant": "A16C C26G", "self-cleavage": 0.731}, {"variant": "C15U C66U", "self-cleavage": 1.21}, {"variant": "C15U C66G", "self-cleavage": 0.831}, {"variant": "A16C C30U", "self-cleavage": 0.449}, {"variant": "A16C C63U", "self-cleavage": 0.895}, {"variant": "C15U C33G", "self-cleavage": 0.166}, {"variant": "C15U C33A", "self-cleavage": 0.178}, {"variant": "A16C C57G", "self-cleavage": 0.646}]}]}
